Data reported in article PMC11065315.

Legend:
[1] = target: eIFiso4F (unphosphorylated; wheat eIFiso4E and eIFiso4G) (wheat)
[2] = target: phosphorylated eIFiso4F (wheat eIFiso4Ep and eIFiso4Gp, phosphorylated in vitro by casein kinase 2) (wheat)
[3] = target: phosphorylated eIFiso4F (wheat eIFiso4Ep and eIFiso4Gp, phosphorylated in vitro by casein kinase 2) (wheat); assay: other fluorescence titration; Van't Hoff plot (ln Keq against 1/T) of the fluorescence titrations at 5, 10, 15, 20 and 25°C
[4] = target: phosphorylated eIFiso4F in complex with eIF4B (wheat) (UniProt Q9AUJ7); assay: as above
[5] = target: phosphorylated eIFiso4F in complex with eIF4B and poly(A)-binding protein (wheat) (UniProt Q9AUJ7); assay: as above
[6] = target: phosphorylated eIFiso4F in complex with poly(A)-binding protein (wheat); assay: as above
[7] = target: phosphorylated eIFiso4F (wheat eIFiso4Ep and eIFiso4Gp, phosphorylated in vitro by casein kinase 2) (wheat); assay: other fluorescence titration; 5°C; quenching of the intrinsic fluorescence of the eIFs by increasing VPg; 20 mM HEPES/KOH pH 7.6, 100 mM NaCl, 1 mM MgCl2, 1 mM DTT
[8] = target: phosphorylated eIFiso4F in complex with eIF4B (wheat) (UniProt Q9AUJ7); assay: as above
[9] = target: phosphorylated eIFiso4F in complex with eIF4B and poly(A)-binding protein (wheat) (UniProt Q9AUJ7); assay: as above
[10] = target: phosphorylated eIFiso4F in complex with poly(A)-binding protein (wheat); assay: as above
[11] = target: phosphorylated eIFiso4F (wheat eIFiso4Ep and eIFiso4Gp, phosphorylated in vitro by casein kinase 2) (wheat); assay: other fluorescence titration; 10°C; quenching of the intrinsic fluorescence of the eIFs by increasing VPg; 20 mM HEPES/KOH pH 7.6, 100 mM NaCl, 1 mM MgCl2, 1 mM DTT
[12] = target: phosphorylated eIFiso4F in complex with eIF4B (wheat) (UniProt Q9AUJ7); assay: as above
[13] = target: phosphorylated eIFiso4F in complex with eIF4B and poly(A)-binding protein (wheat) (UniProt Q9AUJ7); assay: as above
[14] = target: phosphorylated eIFiso4F in complex with poly(A)-binding protein (wheat); assay: as above
[15] = target: phosphorylated eIFiso4F (wheat eIFiso4Ep and eIFiso4Gp, phosphorylated in vitro by casein kinase 2) (wheat); assay: other fluorescence titration; 15°C; quenching of the intrinsic fluorescence of the eIFs by increasing VPg; 20 mM HEPES/KOH pH 7.6, 100 mM NaCl, 1 mM MgCl2, 1 mM DTT
[16] = target: phosphorylated eIFiso4F in complex with eIF4B (wheat) (UniProt Q9AUJ7); assay: as above
[17] = target: phosphorylated eIFiso4F in complex with eIF4B and poly(A)-binding protein (wheat) (UniProt Q9AUJ7); assay: as above
[18] = target: phosphorylated eIFiso4F in complex with poly(A)-binding protein (wheat); assay: as above
[19] = target: phosphorylated eIFiso4F (wheat eIFiso4Ep and eIFiso4Gp, phosphorylated in vitro by casein kinase 2) (wheat); assay: other fluorescence titration; 20°C; quenching of the intrinsic fluorescence of the eIFs by increasing VPg; 20 mM HEPES/KOH pH 7.6, 100 mM NaCl, 1 mM MgCl2, 1 mM DTT
[20] = target: phosphorylated eIFiso4F in complex with eIF4B (wheat) (UniProt Q9AUJ7); assay: as above
[21] = target: phosphorylated eIFiso4F in complex with eIF4B and poly(A)-binding protein (wheat) (UniProt Q9AUJ7); assay: as above
[22] = target: phosphorylated eIFiso4F in complex with poly(A)-binding protein (wheat); assay: as above
[23] = target: phosphorylated eIFiso4F (wheat eIFiso4Ep and eIFiso4Gp, phosphorylated in vitro by casein kinase 2) (wheat); assay: other fluorescence titration; 25°C; quenching of the intrinsic fluorescence of the eIFs (excitation 280 nm, emission 334 nm) by increasing VPg; 100 nM eIFs or BSA (results; 500 nM in the methods); 20 mM HEPES/KOH pH 7.6, 100 mM NaCl, 1 mM MgCl2, 1 mM DTT; complexes pre-formed for 15 min
[24] = target: phosphorylated eIFiso4F in complex with eIF4B (wheat) (UniProt Q9AUJ7); assay: as above
[25] = target: phosphorylated eIFiso4F in complex with eIF4B and poly(A)-binding protein (wheat) (UniProt Q9AUJ7); assay: as above
[26] = target: phosphorylated eIFiso4F in complex with poly(A)-binding protein (wheat); assay: as above

viral protein genome-linked (VPg) of turnip mosaic virus (natural protein)
luciferase translation of uncapped TEV mRNA in eIF4F/eIFiso4F/eIF4B/PABP-depleted WGE with 20 nM VPg, escalating PABP up to 200 nM against no PABP [1]: 3 fold
luciferase translation of capped TEV-luc-A50 mRNA in depleted WGE supplemented with eIFiso4Fp, with against without 20 nM VPg [2]: 2.5 fold
luciferase translation of uncapped TEV-luc-A50 mRNA in depleted WGE supplemented with eIFiso4Fp, with against without 20 nM VPg [2]: 5 fold
luciferase translation of uncapped TEV-luc-A50 mRNA in depleted WGE with eIFiso4Fp and VPg, with against without added PABP [2]: 2 fold
dH [3]: -7.98 kcal/mol
dH [4]: -8.46 kcal/mol
dH [5]: -12.8 kcal/mol
dH [6]: -11.7 kcal/mol
Kd [7]: 17.1 nM
Kd [8]: 15 nM
Kd [9]: 8.6 nM
Kd [10]: 10.3 nM
Kd [11]: 21 nM
Kd [12]: 19.1 nM
Kd [13]: 12 nM
Kd [14]: 14 nM
Kd [15]: 26.2 nM
Kd [16]: 24 nM
Kd [17]: 16.1 nM
Kd [18]: 19.1 nM
Kd [19]: 31 nM
Kd [20]: 29.3 nM
Kd [21]: 19.5 nM
Kd [22]: 26.5 nM
Kd [23]: 41 nM
Kd [24]: 34.1 nM
Kd [25]: 24 nM
Kd [26]: 32 nM
